Paper PMC4279232

Target: recombinant GST-FAM21 356–600
Test: SPR

For “MBP-CCDC93 (448–631) (from UniProt Q567U6 448-631) (domain or fragment)”, which Kd is on record?
The Kd was 0.3 to 0.6 nM.
